Laboratory results: paper PMC3646814, “Tetramerization Reinforces the Dimer Interface of MnSOD” (PLoS ONE, 2013)

How the values were obtained:
[1] = biological target: K184R, L185P CaMnSODc (Candida albicans); experiment: crystal structure; hanging-drop vapor diffusion at 4°C, protein 7 mg/mL; methylated K182R, A183P ScMnSOD in 0.1 M tri-ammonium citrate pH 7, 20% PEG 3,350; unmodified K184R, L185P CaMnSODc in 2 M ammonium sulfate
[2] = biological target: K184R, L185P CaMnSODc (Candida albicans); experiment: SEC; HPLC-SEC (TSK gel G2000SW), as-isolated proteins, 10 µM to 200 nM with respect to monomer, 10 mM potassium phosphate pH 6.7; Kd of the step dimer to monomers, from area integrals of the elution peaks
[3] = biological target: K184R, L185P CaMnSODc (Candida albicans)
[4] = biological target: K184R, L185P CaMnSODc (Candida albicans); remark: listed apart in the source
[5] = biological target: K184R, L185P CaMnSODc (Candida albicans); remark: listed apart in the source
[6] = biological target: wild-type manganese superoxide dismutase from Candida albicans cytosol (Candida albicans); experiment: SEC; HPLC-SEC (TSK gel G2000SW), as-isolated proteins, 10 µM to 200 nM with respect to monomer, 10 mM potassium phosphate pH 6.7; Kd of the step dimer to monomers, from area integrals of the elution peaks
[7] = biological target: the molecule itself; experiment: as above
[8] = biological target: the molecule itself; experiment: crystal structure; hanging-drop vapor diffusion at 4°C, protein 7 mg/mL; methylated K182R, A183P ScMnSOD in 0.1 M tri-ammonium citrate pH 7, 20% PEG 3,350; unmodified K184R, L185P CaMnSODc in 2 M ammonium sulfate

K184R, L185P CaMnSODc (enzyme) was tested. Which stoichiometry N [1] did it give?
The stoichiometry N was 4.

What about the Kd [2] of the same molecule?
Its Kd is 2000 nM.

What about the stoichiometry N [2] of the same molecule?
Its stoichiometry N is 2.

And the pK (the pH at which the SOD activity drops by 50%), pulse radiolysis [3]?
Its pK (the pH at which the SOD activity drops by 50%), pulse radiolysis is 8 pH.

What about the SOD activity (pulse radiolysis) after heating at 41°C (% activity lost) [4] of the same molecule?
The SOD activity (pulse radiolysis) after heating at 41°C (% activity lost) was 70.

And the rate constant of O2^- dismutation by pulse radiolysis at 1 µM to 2.2 µM enzyme [5]?
The rate constant of O2^- dismutation by pulse radiolysis at 1 µM to 2.2 µM enzyme was 9.9e+08 M⁻¹ s⁻¹.

How did the stoichiometry N [6] turn out when “wild-type manganese superoxide dismutase from Candida albicans cytosol (enzyme)” was run?
Its stoichiometry N is 2.

B1: wild-type manganese superoxide dismutase from Saccharomyces cerevisiae mitochondria (enzyme, S. cerevisiae, UniProt P00447 27-233, looked up)
chain: KVTLPDLKWDFGALEPYISGQINELHYTKHHQTYVNGFNTAVDQFQELSDLLAKEPSPANARKMIAIQQNIKFHGGGFTNHCLFWENLAPESQGGGEPPTGALAKAIDEQFGSLDELIKLTNTKLAGVQGSGWAFIVKNLSNGGKLDVVQTYNQDTVTGPLVPLVAIDAWEHAYYLQYQNKKADYFKAIWNVVNWKEASRRFDAGKI
notes: Manganese superoxide dismutase of S. cerevisiae mitochondria (ScMnSOD), expressed from a 2-kb genomic BamHI fragment containing the gene; As isolated, 0.70 Mn per monomer; also called ScMnSOD; WT ScMnSOD; source: S. cerevisiae sod2Δ strain (EG110), overexpressed from YEp352-ScMnSOD, purified
How did the “stoichiometry N” value [7] turn out when B1 was run?
Its value is 4.

B2: K182R, A183P ScMnSOD (enzyme, S. cerevisiae, UniProt P00447 27-233, looked up)
chain: KVTLPDLKWDFGALEPYISGQINELHYTKHHQTYVNGFNTAVDQFQELSDLLAKEPSPANARKMIAIQQNIKFHGGGFTNHCLFWENLAPESQGGGEPPTGALAKAIDEQFGSLDELIKLTNTKLAGVQGSGWAFIVKNLSNGGKLDVVQTYNQDTVTGPLVPLVAIDAWEHAYYLQYQNKRPDYFKAIWNVVNWKEASRRFDAGKI
notes: Manganese superoxide dismutase of S. cerevisiae mitochondria (ScMnSOD) with K182R and A183P; Unmethylated form used for HPLC-SEC; as isolated, 0.71 Mn per monomer; also called RP-mutant ScMnSOD; as-isolated K182R, A183P ScMnSOD; source: S. cerevisiae sod2Δ strain (EG110), overexpressed from YEp352-ScMnSOD (mutant), purified
For B2, which “stoichiometry N” value [7] is on record?
Its value is 4.

B3: methylated K182R, A183P ScMnSOD (enzyme, S. cerevisiae, UniProt P00447 27-233, looked up)
chain: KVTLPDLKWDFGALEPYISGQINELHYTKHHQTYVNGFNTAVDQFQELSDLLAKEPSPANARKMIAIQQNIKFHGGGFTNHCLFWENLAPESQGGGEPPTGALAKAIDEQFGSLDELIKLTNTKLAGVQGSGWAFIVKNLSNGGKLDVVQTYNQDTVTGPLVPLVAIDAWEHAYYLQYQNKRPDYFKAIWNVVNWKEASRRFDAGKI
modifications: all free amino groups of the lysine residues and the N-terminus methylated (reductive methylation, confirmed by mass spectrometry)
notes: Manganese superoxide dismutase of S. cerevisiae mitochondria (ScMnSOD) with K182R and A183P; The form that was crystallised; 0.71 Mn per monomer; theoretical mass of the methylated protein 23,589 Da; also called methylated RP-mutant ScMnSOD; source: S. cerevisiae sod2Δ strain (EG110), overexpressed, purified, then reductive methylation
For B3, which “stoichiometry N” value [8] is on record?
The value was 4.
